Entries after “also recorded” stand apart in the source; their conditions may differ.
Tests used:
[1] = target: T1, wtMET (Homo sapiens, UniProt P08581); test: MET phosphorylation in serum-starved A549 cells (western blot); assay type: cell-based; settings: FIG. 1B, FIG. 5
T1 construct: in A549 cells the matured, cleaved MET protein was the predominant form; endogenous in cells; host or cells: A549 cells, serum-starved
Protocol: (§1) All cell lines were maintained at 37° C. in the presence of 5% CO2. To examine HGF-induced MET activation, E98 and A549 cells were seeded in 6 wells plates. The next day cells were serum-starved overnight. The following day cells were treated for 10 minutes (min) with HGF (50 ng/mL, Miltenyi Biotec, Bergisch Gladbach, Germany).
(§2) Cell lysates were prepared using RIPA buffer containing protease and phosphatase inhibitors (Cell Signaling Technology, CST, Danvers, Mass., USA). RIPA extracts (20-40 μg per lane) and His-tagged proteins from conditioned media (equivalent of 20 μl conditioned medium) were subjected to PAGE on 8-10% polyacrylamide gels and western blotting according to standard procedures. Nitrocellulose blots (Whatman Optitran BA-S85, GE Healthcare, Little Chalfont, UK) were blocked with PBS/Odyssey Blocking Buffer (LI-COR Biosciences, Lincoln, Nebr., USA) (1:1), followed by overnight incubation with primary antibodies at 4° C. […] Biotin groups and primary antibodies were visualized using respectively streptavidin-680 (Molecular Probes, Life Technology) and appropriate secondary antibodies [goat-anti-rabbit-IRDye800 (Rockland Immunochemicals, Gilbertsville, Pa., USA) or Alexa Fluor 680 goat-anti-mouse IgG (Molecular Probes, Life Technologies)]. Blots were scanned on the Odyssey imager (LI-COR Biosciences).

[2] = tested on: AKT; test: AKT phosphorylation in E98 cells (western blot); assay type: cell-based, human; settings: serum-starved E98 cells; FIG. 5
Protocol: (§3) The E98 cell line and xenograft model and genetic analysis thereof have been described before (Caretti et al., 2011; Claes et al., 2008). E98, U87, A549, HEK-293T and TOV-112D cells were cultured in DMEM+4.5 g/L glucose medium (PAA Laboratories, Pasching, Austria) supplemented with 10% fetal calf serum (FCS) (PAA) and gentamycin (40 μg/mL). All cell lines were maintained at 37° C. in the presence of 5% CO2. To examine HGF-induced MET activation, E98 and A549 cells were seeded in 6 wells plates. The next day cells were serum-starved overnight. The following day cells were treated for 10 minutes (min) with HGF (50 ng/mL, Miltenyi Biotec, Bergisch Gladbach, Germany). In some experiments, prior to HGF incubation cells were incubated with the anti-MET llama VHH G2 (Heukers et al., 2014) or cabozantinib (XL-184, Exelixis, San Francisco, Calif.) for 60 min.
(§4) Cell lysates were prepared using RIPA buffer containing protease and phosphatase inhibitors (Cell Signaling Technology, CST, Danvers, Mass., USA). RIPA extracts (20-40 μg per lane) and His-tagged proteins from conditioned media (equivalent of 20 μl conditioned medium) were subjected to PAGE on 8-10% polyacrylamide gels and western blotting according to standard procedures. […]

[3] = target: T2, METΔ7-8 (Homo sapiens, UniProt P08581, DEL622-701); test: MET phosphorylation in serum-starved E98 cells (western blot); assay type: cell-based; settings: FIG. 5
T2 construct: the majority of MET protein was in a 180 kDa phosphorylated form, corresponding to the uncleaved truncated preform; endogenous in cells; host or cells: E98 glioma cells, serum-starved
Protocol: as §1, §2

[4] = tested on: AKT; test: AKT phosphorylation in A549 cells (western blot); assay type: cell-based, human; settings: FIG. 5
Protocol: as §3, §4

[5] = tested on: lung cancer; settings: phase II study, lung cancer (Spigel et al., 2013); cited from earlier work

Row | activation of the minority of processed β-fragment of MET [3] | overall MET phosphorylation levels ([3]; HGF 50 ng/mL 10 min, G2 or cabozantinib 60 min, FIG. 1B) | Substance | MET phosphorylation [1] | levels of pAKT [2] | levels of pAKT [4] | primary end point of prolonged survival [5]
1 | slight activation | did not further increase | HGF: ligand Hepatocyte Growth Factor (HGF, Scatter Factor) of MET | required for MET activation; also recorded: induced MET phosphorylation | neither G2 nor HGF treatment resulted in altered levels | increased levels of pAKT | –
2 | – | – | MetMab: antibody; MET activation inhibitor tested in a phase II study for lung cancer | – | – | – | failed to meet the primary end point
